Test results taken from article PMC2151181 (The Journal of Cell Biology, 1999).

Molecular target: SNARE core complex (synaptobrevin-II 1–96, syntaxin-1A 180–262, SNAP-25A 1–83, SNAP-25A 130–206) (rat, UniProt P63045;P32851;P60881-2)
Assay: native gel or EMSA

B1: synaptotagmin III C2A-C2B, residues 295–569 (domain or fragment)
chain: APCGRISFALRYLYGSDHLVVRILQALDLPAKDSNGFSDPYVKIYLLPDRKKKFQTKVHRKTLNPIFNETFQFSVPLAELAQRKLHFSVYDFDRFSRHDLIGQVVLDNLLELAEQPPDRPLWRDILEGGSEKADLGELNFSLCYLPTAGRLTVTIIKASNLKAMDLTGFSDPYVKASLISEGRRLKKRKTSIKKNTLNPTYNEALVFDVAPESVENVGLSIAVVDYDCIGHNEVIGVCRVGPEAADPHGREHWAEMLANPRKPVEHWHQLVEEKT
Q: Does B1 bind?
A: binds
